The text below walks through data of the nanobody polyreactivity screen of Harvey et al. (2022).

This data set is described as follows: yeast display, Sf9 membrane polyspecificity reagent, FACS + sequencing; frameworks hold sequencing errors. The method, boiled down: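 Using colony PCR, genes from sorted yeast display clones were amplified, then sequenced on MiSeq at 2 × 250 and filtered by CDR length. The clones had been stained with 10% biotinylated, detergent-solubilized Sf9 membrane reagent for 1 hour at 4 °C and sorted by FACS into low and high (top ~1%) gates on anti-HA and streptavidin fluorescence. Polyreactivity labels come from the gate of origin.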
With “QVHLVESGGGLVQAGGSLRLSCAASGIIFGGNVMGWYRQAGGKERELVAAITWSGGTTYYADSVKGRFTISRDNAKNTVYLQMNSLKPEDTAVYYCAADRFYLDYVAGTYDYWGQGTQVTVSS”, the “polyreactivity (PSR sort gate)” value is given as “low polyreactivity”. With “QVQLVESGVGLVQAGGSLRLSCAASGSIFGFYAMGWSRQAPGKERELVAAISDSGDSTYYADSVKGRFTISRDNAKNTVYLQMNSLKPEDTAVYNCATDGRSNYYWGDYWGQGTQVTVSS” the entry was “low polyreactivity”; with “QVQLVESGGGLVQAGGSLRLSCAASGSILYRYAMGWYRQAPGKERELVAAITRSGGSTYYADSVKGRFTISRDNAKNTVYLQMNSLKPEDTAVYYCARQRKVSAHSIEMDYWGQGTQVTVSS”, “low polyreactivity”; with “QVQLVESGGGLVQAGGSLRLSCAASGSTFESYAMGWYRQAPGKERELVAAISWRVGSTYYADSVKGRFTISRDNAKNTVYLQMNSLKPEDTAVYYCASKGWYSHYGGYDYWGQGTQVTVSS”, “low polyreactivity”. With “QVQLVESGGVLVQAGGSLRLSCAASGIIYYGYAMGWYRQAPRKERELVAAISRSGGSTYYADSVKGRFTISRDNAMNTVYFLMNSLKPEDTAVYYCAALVRTTSSYRYNFWGQGTQVTVSS” the entry was “high polyreactivity”.

Consider “QVQLVESGGGLVQAGVSLRLSCAASGSILTINAMGLYRQAPGKERELVPAITSGGGSTYYADSVKGRFTISRDNAKNTVYLQMNSLKPEDTAVYYCNKVFVLPYKFVAWFDYWGQGTQVTVSS”, for which the “polyreactivity (PSR sort gate)” value is listed as “low polyreactivity”. For the sequence “QVQLVESGGGLVQAGGSLRLSCAASGSTLQRYAMGWYRQAPGKEREFVAAINWSGSNTYYADSVKGRFTISRDNAKNTVYLQMNSLKPEDTAVYYCATNTWLFGGNYWGQGTQVTVSS”, the “polyreactivity (PSR sort gate)” value is “high polyreactivity”. The result for “QVQLVESGGGLVQAGGSLRLSCAASGSIFYFNAMGWYRQAPGKERELVATIRSGDGRTYYADSVKGRFTISRDNAKNTVYLQMNSLKPEDTAVYYCNASRVVYRQAYLYGYDYWGQGTQVTVSS” reads “low polyreactivity”; that for “QVQLVESGGGLVQAGGSLRLSCAASGRIFVDYAMGWERQAPGKERELVAAITYGGGSTHYADSVKGRFTISRDNAKNTVYLQMNSLKPEDTAVYYCAADLFYHSYGYEYWGQGTQGTVSS”, “low polyreactivity”; that for “QVQLVESGGGLVQAGGSLRLSCAASGSTFRTNAMGWYRQAPGKERELVADISKRGGNTYYADSVKGRFTISRDNAKNTVYLQMNCLKPEDTALYDCAAYRVYGYGGGYDYYYWVQGTQVTVSS”, “high polyreactivity”. With “QVQLVESGGGLVQAGGSLRLSCAASGRTALRNAMGWYRQAPGKEREFVADIRWSGGSTYYADSVKGRFTISRDKAKNTVYLQMNSQKPEDTAVYYCAAGYVRYPYWYYYWGQGTQVTVSS” the entry was “high polyreactivity”; with “QVQLVESGGCLVQAGGSLRLSCAASGSTLGYYVMGWYRQAPGKERELFAAITGCGSTDYADSVKGRFTISRDNAKNTVYLQMNSLIPEDTAVYYCAAERTRTGQLFWWGPIYDYWGQGTQVTVSS”, “low polyreactivity”; with “QVQRVESGGGLVQAGGSLRLSCAASGITFGIYVMGWYRQAPGKETELVATISRSDDNTYYADSVKGRFTISRDNAKNTVYLQMNSLKPEDTAVYYCAADGVISAWYSSRDDYWGQGTQVTVSS”, “low polyreactivity”. The result for “QVQLVESGGGLVQAGGSLRLSCAASGGTFGSYAMGWYRQAPAKERELVAAIRSGDRTYYADSVKGRFTISRDNAKNTDYLQMNSLKPEHTAVDYCAAFYHHYYRYDYWGQGTQVTVSS” reads “low polyreactivity”. For “QGQLVESGGGLVQAGGSLRLSCAASGSISTYYAMGWYRQAPGKERELVAAISSSGVRTYYADSVKGRFTIARDNAKNTVYLQMNSLKREDTAVSYCAAEVYYLYFYIMDYWGQGTQVTVSS”, the “polyreactivity (PSR sort gate)” value was “high polyreactivity”. With “QVQLVESGGCLVQAGGSLRLSCAASGRTFYGNDMGWYSQAPGTERELVAAISSSGGSTYYADSVKGRGTISRDNGKNTVYLQMKSLKPEDTAVYYCNAYWRGFRLSYYEDSYYWGQGTQVTVSS” the entry was “high polyreactivity”.
